In US20250092406:
Like-named read-outs stand apart in the source and are kept apart here.

Experiments:
[1] = target: SARS-CoV-2 spike glycoprotein subunit 1 (S1) (SARS-CoV-2) (UniProt P0DTC2); assay: BLI
[2] = target: TNF-alpha (UniProt P01375); assay: BLI; settings: SEQ 37 part DNA primer, selected region TNA 3'-2', 24 C, 2 mM CaCl2
[3] = SEQ 37 part DNA primer, selected region TNA 3'-2', all T = C5-indole carboxamide U (UTrp)
[4] = SEQ 37 part DNA primer, selected region TNA 3'-2', all T = C5-benzyl carboxamide U (UPhe)
[5] = all T = C5-benzyl carboxamide U (UPhe)
[6] = all T = C5-indole carboxamide U (UTrp)

TNF-alpha, sequence (P01375 77-233): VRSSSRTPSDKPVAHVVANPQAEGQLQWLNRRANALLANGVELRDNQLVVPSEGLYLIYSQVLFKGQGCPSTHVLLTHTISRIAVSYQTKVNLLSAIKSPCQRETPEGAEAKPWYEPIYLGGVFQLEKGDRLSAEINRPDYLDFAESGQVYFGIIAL

Sequence: GTCCCCTTGGGGATACCACCAAACTGTTGGGACTTGTAATGTCGTCATCAGCTAAGAGTC [S1 Trp entry 22]
- Kd [1, 3]: 21.1 nM

Sequence: GTCCCCTTGGGGATACCACCACGAGTAGGCCGCATTATGATGATTTAAACTGTTTCATGC [TNF Trp-3]
- Kd ([2]; all T = C5-indole carboxamide U (UTrp), three replicates 16, 17, 27 nM): 20 nM

Sequence: GTCCCCTTGGGGATACCACCACGATGGACTTGGGTAGCTAGTCAGGTTAGGCTGTTTGGA [S1 Phe entry 11]
- Kd [1, 4]: 22.1 nM

Sequence: GTCCCCTTGGGGATACCACCACTTTTGCTTGAGATTCGGCGCATTTCGTGCAGTGATGTA [TNF Phe entry 5]
- Kd [2, 5]: 27 nM

Sequence: GTCCCCTTGGGGATACCACCAGAACTTCGTCAGCGTCTTACCGAGTCCAAGGACTGGCTA [S1 Phe entry 12]
- Kd [1, 4]: 28.8 nM

Sequence: GTCCCCTTGGGGATACCACCAGAGCAAGTCATGATCGCGAGTTTAGCTTTTTCATTTCCC [TNF Phe entry 9]
- Kd [2, 5]: 86 nM

Sequence: GTCCCCTTGGGGATACCACCAGGCTTATGAAATCTTATGTGAACCGGGCATACGGGCGAT [S1 Phe entry 4]
- Kd [1, 4]: 5.2 nM

Sequence: GTCCCCTTGGGGATACCACCATCGAGTTGTGACGTTAACGATAATAGCCCGCTCCGATTC [S1 Phe entry 13]
- Kd [1, 4]: 31 nM

Sequence: GTCCCCTTGGGGATACCACCATTGTGCGAAGTATACATAGCAGATGCGTGACATAACAAG [S1 Trp entry 20]
- Kd [1, 3]: 5.1 nM

Sequence: GTCCCCTTGGGGATACCACCCGCGGCGTTGCGTAGCGCCAATCCTGCACAGAGGCGGGCG [TNF standard entry 3]
- Kd ([2]; natural bases, R2 0.88): 141 nM

Sequence: GTCCCCTTGGGGATACCACCCGTACAACTCCGGTTTCGGGCGGCCCGTTCTTCAGTTTGA [S1 Trp entry 18]
- Kd [1, 3]: 2.7 nM

Sequence: GTCCCCTTGGGGATACCACCCGTGCACGATCTAGCCAGTGCTCGCTTGAAATGGGCGCAG [S1 Standard-2]
- Kd ([1]; SEQ 37 part DNA primer, selected region TNA 3'-2', natural bases): 34 nM

Sequence: GTCCCCTTGGGGATACCACCCTTAGGTCGGCCTTTGACCATTCGTGCAAAACTTAGCGAA [TNF Phe entry 6]
- Kd [2, 5]: 41 nM

Sequence: GTCCCCTTGGGGATACCACCGAATGCGCTTGAGCGCGCCCGATGATATAGCGAACCAAGC [TNF Phe entry 7]
- Kd [2, 5]: 54 nM

Sequence: GTCCCCTTGGGGATACCACCGACGCTATGACTGGTATGGTGTGTGAGCTTCGAGGTCTGA [TNF Standard-2]
- Kd ([2]; natural bases, three replicates 109, 76, 62 nM, approximate, poor curve fit): 82 nM

Sequence: GTCCCCTTGGGGATACCACCGAGAGTCATAGTAGTTCACGGGTCTGCAGCTTACGCATGT [S1 Phe entry 6]
- Kd [1, 4]: 11.3 nM

Sequence: GTCCCCTTGGGGATACCACCGCGGCCAGATCCCCGATATGTTAACGTCCTTTTATGCGGG [TNA 913]
- Kd ([1]; SEQ 37 part DNA primer, selected region TNA 3'-2', all T = C5-indole carboxamide U (UTrp; from doped Trp-1 library)): 0.85 nM

Sequence: GTCCCCTTGGGGATACCACCGCGGGGGGTGTTGTGTAACTGTTTTTTGCCGGAAAGACGC [TNF standard entry 1]
- Kd ([2]; natural bases, R2 0.88): 42 nM

Sequence: GTCCCCTTGGGGATACCACCGGCACTATCGATTATCGTGCGCATTGGTTGTGTCCAGGCT [TNF Trp entry 10]
- Kd [2, 6]: 7.3 nM

Sequence: GTCCCCTTGGGGATACCACCGGTGTAATAAGGAGAGTACGTCGTTTGGTGGGACCGGGTA [S1 Phe entry 15]
- Kd [1, 4]: 39 nM

Sequence: GTCCCCTTGGGGATACCACCTAAGGAAAGGGGAGCGGGTAGGAGGTTCGTCGGGTGCGAC [S1 Trp entry 19]
- Kd [1, 3]: 4.2 nM

Sequence: GTCCCCTTGGGGATACCACCTACATTACGCGTTAGCGTTAATGGGTATGTCCGGACAGTG [S1 Phe entry 14]
- Kd [1, 4]: 36 nM

Sequence: GTCCCCTTGGGGATACCACCTATTGGAACTCCCGAGCAGGCTGTCCCATGGAAGACTACA [S1 Phe entry 3]
- Kd [1, 4]: 2.6 nM

Sequence: GTCCCCTTGGGGATACCACCTCACGTCTGTTGTACACTTGTGCAATGCAAGGACGGAAAA [TNF Trp entry 11]
- Kd [2, 6]: 12 nM

Sequence: GTCCCCTTGGGGATACCACCTGACACCTGGCACGAATGCGCAGACGACGTTGTTTTGCGT [TNF Phe entry 4]
- Kd [2, 5]: 19 nM

Sequence: GTCCCCTTGGGGATACCACCTGGCGAGGGGTAGTGAGCTGACGGATAGGGCTAGTGGAAC [S1 standard entry 1]
- Kd ([1]; SEQ 37 part DNA primer, selected region alpha-L-threofuranosyl (TNA) 3'-2', natural bases): 17.6 nM

Sequence: GTCCCCTTGGGGATACCACCTGTACGCCATATAGGCAGTCATCGAGCAACGAAGTAATGG [S1 Phe entry 9]
- Kd [1, 4]: 16.7 nM

Sequence: GTCCCCTTGGGGATACCACCTTAATTTTGAGATCTTTGTCGAGTTGCTCGGTGAAAAGTC [TNF Phe entry 8]
- Kd [2, 5]: 70 nM

Sequence: GTCCCCTTGGGGATACCACCTTAGTATTATTATGGGTGCGTGAGTTTCCAAGAAGCGCGT [TNA 949]
- Kd ([1]; SEQ 37 part DNA primer, selected region TNA 3'-2', threomer base modification (side chain not stated, probably UTrp)): 0.7 nM

Sequence: GTCCCCTTGGGGATACCACCTTGGCGAGATCCCCTATACGTGAGCTTCCTTTTATCCTTT [S1 Trp-1]
- Kd [1]: 3.1 nM

Sequence: GTCCCCTTGGGGATACCACCTTTCTATGCATCTCGGGGATGCGGGATATAAAAGAGAGAC [S1 Trp entry 23]
- Kd [1, 3]: 29.1 nM
